Measured values reported in publication PMC3857803.

Molecular target: anti-METH single chain antibody fragment scFv6H4
Assay: crystal structure; apo scFv6H4, hanging drop; protein 14 mg/ml in 5 mM HEPES, 100 mM NaCl, 1 mM NaN3, pH 8.0; reservoir 1.6 M ammonium sulfate, 240 mM imidazole malate, pH 8.0; space group P2(1)3, one molecule in the asymmetric unit; trimer formed by the crystallographic 3-fold axis, with a Ni2+ ion and a sulfate on the axis

stoichiometry N: 3
B1: anti-METH single chain antibody fragment scFv6H4 (scFv, V domains shown)
VH: EVQLQESGPSLVKPSQTLSLTCSVTGDSVTSGYWSWIRQFPGNKLDYMGYISYRGSTYYNPSLKSRISITRDTSKNQVYLQLKSVSSEDTATYYCSYFDSDDYAMEYWGQGTSVTVSG
VL: QIVLTQSPAIMSASPGEKVTLTCSASSSVSSSHLYWYQQKPGSSPKLWIYSTSNLASGVPARFSGSGSGTSYSLTISSMEAEDAASYFCHQWSSFPFTFGSGTKLEIK
